The values that follow come from patent US20150361450.

Data set [1] has as its system KARS2 (mature mitochondrial lysyl-tRNA synthetase, lacking predicted mitochondrial targeting presequence) (Homo sapiens). The settings on record: CITED apparent Kd, printed as 250+/240; cited from earlier work.
Data set [2] relates to preKARS2 (precursor of human mitochondrial lysyl-tRNA synthetase) (Homo sapiens), Q15046-2. Conditions: CITED targeting sequence said to completely abolish RNA binding; cited from earlier work.
Chain of preKARS2 (precursor of human mitochondrial lysyl-tRNA synthetase) (Homo sapiens), Q15046-2 (Q15046 other isoform, or with tags, fused parts or gaps): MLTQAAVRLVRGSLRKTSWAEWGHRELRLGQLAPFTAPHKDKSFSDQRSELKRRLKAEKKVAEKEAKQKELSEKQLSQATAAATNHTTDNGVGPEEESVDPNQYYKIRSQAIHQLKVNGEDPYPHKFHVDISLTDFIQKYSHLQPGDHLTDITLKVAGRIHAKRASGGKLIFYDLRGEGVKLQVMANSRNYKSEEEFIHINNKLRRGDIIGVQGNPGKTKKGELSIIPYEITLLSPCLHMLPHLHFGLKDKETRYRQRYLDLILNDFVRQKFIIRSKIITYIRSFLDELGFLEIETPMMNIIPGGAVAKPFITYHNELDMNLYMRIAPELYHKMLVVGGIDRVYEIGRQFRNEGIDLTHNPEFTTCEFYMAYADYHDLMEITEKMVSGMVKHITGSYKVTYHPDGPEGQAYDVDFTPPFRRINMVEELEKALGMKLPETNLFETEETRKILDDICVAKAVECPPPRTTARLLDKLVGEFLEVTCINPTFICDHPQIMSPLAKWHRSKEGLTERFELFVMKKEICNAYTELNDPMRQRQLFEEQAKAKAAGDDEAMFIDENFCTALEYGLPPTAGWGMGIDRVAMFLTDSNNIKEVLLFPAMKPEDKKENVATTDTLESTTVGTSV
For data set [3], the system named is preMSK1p (precursor of yeast mitochondrial lysyl-tRNA synthetase) (Saccharomyces cerevisiae). The settings on record: CITED previously evaluated apparent Kd, printed as 280+/260; cited from earlier work.
Data set [4] concerns preKARS2 (precursor of human mitochondrial lysyl-tRNA synthetase) (Homo sapiens), Q15046-2. Kind of data set: EMSA. Conditions: apparent Kd, error printed as 300+/250 (likely +/-50); 20 mM Tris-HCl pH 7.5, 150 mM NaCl, 10 mM MgCl2, 30 C.

Read-outs that look alike come from different tables or passages of the source.

As for human cytosolic tRNALys3, the Kd in data set [1] was 250 nM; in data set [2], 100000 nM.
Regarding tRK1 (yeast tRNALys CUU, T7 transcript), the Kd in data set [3] was 280 nM; in data set [4] it was 300 nM.
